According to patent WO2008044032A2 (dated 2008):

Target: T1, CD20 on the CD20+ human Daudi Burkitt lymphoma cell line (human, UniProt P11836 1-297)
T1 construct: whole, on cells; also called Daudi cells
T1 sequence (looked up): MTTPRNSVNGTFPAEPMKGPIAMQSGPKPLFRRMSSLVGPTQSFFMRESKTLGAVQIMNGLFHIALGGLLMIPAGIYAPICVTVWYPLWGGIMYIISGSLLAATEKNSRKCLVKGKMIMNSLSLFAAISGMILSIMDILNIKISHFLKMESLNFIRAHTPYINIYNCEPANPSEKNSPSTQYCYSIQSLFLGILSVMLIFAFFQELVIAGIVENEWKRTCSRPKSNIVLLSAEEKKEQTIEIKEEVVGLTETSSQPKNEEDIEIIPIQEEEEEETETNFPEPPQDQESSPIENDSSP
Assay: FACS binding assay on CD20+ Daudi cells, serial dilutions of antibody

- binding result: binds
B1: chimeric anti-CD20 antibody (unmodified chimeric Leu 16) (antibody, human IgG1, V domains shown)
VH: EVQLQQSGAELVKPGASVKMSCKASGYTFTSYNMHWVKQTPGQGLEWIGAIYPGNGDTSYNQKFKGKATLTADKSSSTAYMQLSSLTSEDSADYYCARSNYYGSSYWFFDVWGAGTTVTVSS
VL: DIVLTQSPAILSASPGEKVTMTCRASSSVNYMDWYQKKPGSSPKPWIYATSNLASGVPARFSGSGSGTSYSLTISRVEAEDAATYYCQQWSFNPPTFGGGTKLEIK
notes: Only the variable regions are printed
